# Measured values published in patent publication US20260199522.
# B1: human Complement Factor I (hCFI) expressed from the AAV-CFI-1.0 vector, secreted into cell media of transduced rabbit retinal explants (protein)
# chain: KVTYTSQEDLVEKKCLAKKYTHLSCDKVFCQPWQRCIEGTCVCKLPYQCPKNGTAVCATNRRSFPTYCQQKSLECLHPGTKFLNNGTCTAEGKFSVSLKHGNTDSEGIVEVKLVDQDKTMFICKSSWSMREANVACLDLGFQQGADTQRRFKLSDLSINSTECLHVHCRGLETSLAECTFTKRRTMGYQDFADVVCYTQKADSPMDDFFQCVNGKYISQMKACDGINDCGDQSDELCCKACQGKGFHCKSGVCIPSQYQCNGEVDCITGEDEVGCAGFASVTQEETEILTADMDAERRRIKSLLPKLSCGVKNRMHIRRKRIVGGKRAQLGDLPWQVAIKDASGITCGGIYIGGCWILTAAHCLRASKTHRYQIWTTVVDWIHPDLKRIVIEYVDRIIFHENYNAGTYQNDIALIEMKKDGNKKDCELPRSIPACVPWSPYLFQPNDTCIVSGWGREKDNERVFSLQWGEVKLISNCSKFYGNRFYEKEMECAGTYDGSIDACKGDSGGPLVCMDANNVTYVWGVVSWGENCGKPEFPGVYTKVANYFDWISYHVGRPFISQYNV
# Target: purified C3b (Complement Technology, Inc. #A114), P01024
# Sequence (P01024 whole entry, looked up): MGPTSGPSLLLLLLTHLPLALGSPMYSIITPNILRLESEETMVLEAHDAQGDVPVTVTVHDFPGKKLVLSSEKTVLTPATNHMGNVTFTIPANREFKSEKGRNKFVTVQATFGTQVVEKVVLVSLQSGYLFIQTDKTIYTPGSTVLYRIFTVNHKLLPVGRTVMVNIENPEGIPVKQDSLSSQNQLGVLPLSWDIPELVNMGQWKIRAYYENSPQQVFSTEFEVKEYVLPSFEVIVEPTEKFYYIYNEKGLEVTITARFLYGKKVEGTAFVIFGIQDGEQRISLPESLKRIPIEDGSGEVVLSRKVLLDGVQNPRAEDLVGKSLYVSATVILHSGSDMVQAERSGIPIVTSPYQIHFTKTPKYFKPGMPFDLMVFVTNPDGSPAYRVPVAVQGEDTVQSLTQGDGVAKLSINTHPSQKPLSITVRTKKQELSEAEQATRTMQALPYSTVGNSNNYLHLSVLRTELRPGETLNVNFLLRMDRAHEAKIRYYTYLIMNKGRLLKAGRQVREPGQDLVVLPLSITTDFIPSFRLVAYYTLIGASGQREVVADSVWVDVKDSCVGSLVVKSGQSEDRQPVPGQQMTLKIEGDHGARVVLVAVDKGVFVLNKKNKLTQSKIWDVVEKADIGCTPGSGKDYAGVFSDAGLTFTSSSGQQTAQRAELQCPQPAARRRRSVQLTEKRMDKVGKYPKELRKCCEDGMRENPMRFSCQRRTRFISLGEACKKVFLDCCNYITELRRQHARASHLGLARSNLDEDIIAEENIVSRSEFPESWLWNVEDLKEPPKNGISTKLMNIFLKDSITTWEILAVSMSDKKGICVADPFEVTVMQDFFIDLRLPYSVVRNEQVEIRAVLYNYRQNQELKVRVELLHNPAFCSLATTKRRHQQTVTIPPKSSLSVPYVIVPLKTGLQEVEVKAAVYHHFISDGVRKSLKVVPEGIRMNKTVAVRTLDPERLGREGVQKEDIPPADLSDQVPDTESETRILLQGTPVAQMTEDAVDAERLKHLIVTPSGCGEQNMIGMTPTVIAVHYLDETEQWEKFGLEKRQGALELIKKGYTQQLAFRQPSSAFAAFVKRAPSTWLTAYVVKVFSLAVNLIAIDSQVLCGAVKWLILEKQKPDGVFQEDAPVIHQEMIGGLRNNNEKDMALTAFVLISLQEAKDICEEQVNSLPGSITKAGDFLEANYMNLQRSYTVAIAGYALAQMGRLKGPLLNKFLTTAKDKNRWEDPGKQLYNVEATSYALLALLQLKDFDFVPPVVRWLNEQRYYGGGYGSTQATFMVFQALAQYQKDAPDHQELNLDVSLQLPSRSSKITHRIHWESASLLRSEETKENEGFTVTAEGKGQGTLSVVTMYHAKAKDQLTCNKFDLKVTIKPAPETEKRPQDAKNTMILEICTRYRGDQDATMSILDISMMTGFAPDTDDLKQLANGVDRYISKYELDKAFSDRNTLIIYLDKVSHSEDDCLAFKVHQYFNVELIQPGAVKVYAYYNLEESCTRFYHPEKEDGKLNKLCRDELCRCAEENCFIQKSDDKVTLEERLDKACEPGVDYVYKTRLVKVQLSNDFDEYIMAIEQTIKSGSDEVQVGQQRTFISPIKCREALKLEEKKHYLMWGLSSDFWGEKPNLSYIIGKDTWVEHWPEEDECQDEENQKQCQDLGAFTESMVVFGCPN
protein,measurement,value
B1,"C3b cleavage assay (Western blot stained with anti-C3 antibody; appearance of iC3b 68 kDa and 43 kDa bands), in the presence of purified CFH",The iC3b 43 kDa polypeptide is present in all lanes containing cell media from rabbit explants transduced with AAV-CFI-1.0 package into either AAV2.7m8 or AAV2.5T-LSV1 capsid serotypes
